Patent US20210252069A1 (published 2021)

T1: IL13Rα2 (human, UniProt Q14627 27-380)
T1 construct: whole, on cells; Endogenous target on U87 cells; also called IL-13Ra2; IL13Ra2
T1 sequence (looked up): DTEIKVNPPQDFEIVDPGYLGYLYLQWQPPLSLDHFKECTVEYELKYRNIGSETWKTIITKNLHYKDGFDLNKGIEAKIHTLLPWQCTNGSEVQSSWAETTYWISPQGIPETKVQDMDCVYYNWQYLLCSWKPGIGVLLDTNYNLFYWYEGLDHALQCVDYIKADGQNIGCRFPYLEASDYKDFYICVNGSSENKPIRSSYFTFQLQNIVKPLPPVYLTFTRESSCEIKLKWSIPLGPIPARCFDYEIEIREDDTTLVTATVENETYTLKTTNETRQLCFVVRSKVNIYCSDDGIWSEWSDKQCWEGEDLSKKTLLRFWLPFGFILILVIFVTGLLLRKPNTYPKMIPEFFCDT

B1: CAR-containing polypeptide #12 (IL13Rα2-specific chimeric antigen receptor with human IL13.E11K.R64D.S67D.R107K binding domain, 4-1BB, IL-2Rβ part, mutant CD3ζ) (receptor)
chain: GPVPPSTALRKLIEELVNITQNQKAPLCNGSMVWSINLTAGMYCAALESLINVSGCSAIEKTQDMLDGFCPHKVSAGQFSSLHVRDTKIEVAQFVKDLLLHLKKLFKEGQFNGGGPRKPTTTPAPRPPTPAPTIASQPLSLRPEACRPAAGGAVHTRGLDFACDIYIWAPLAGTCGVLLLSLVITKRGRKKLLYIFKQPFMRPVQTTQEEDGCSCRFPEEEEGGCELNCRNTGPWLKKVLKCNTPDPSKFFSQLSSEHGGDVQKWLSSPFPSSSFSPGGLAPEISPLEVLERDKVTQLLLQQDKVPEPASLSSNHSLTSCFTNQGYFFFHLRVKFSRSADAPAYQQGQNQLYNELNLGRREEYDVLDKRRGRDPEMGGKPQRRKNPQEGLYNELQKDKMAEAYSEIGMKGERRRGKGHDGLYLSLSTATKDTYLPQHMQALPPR
notes: Expressed on human T cells; also called CAR-T #12; PG13/#12
B2: CAR-containing polypeptide #6 (IL13Rα2-specific chimeric antigen receptor with human IL13.E11K.R64D.S67D.R107K binding domain, 4-1BB, IL-7Rα part, mutant CD3ζ) (receptor)
chain: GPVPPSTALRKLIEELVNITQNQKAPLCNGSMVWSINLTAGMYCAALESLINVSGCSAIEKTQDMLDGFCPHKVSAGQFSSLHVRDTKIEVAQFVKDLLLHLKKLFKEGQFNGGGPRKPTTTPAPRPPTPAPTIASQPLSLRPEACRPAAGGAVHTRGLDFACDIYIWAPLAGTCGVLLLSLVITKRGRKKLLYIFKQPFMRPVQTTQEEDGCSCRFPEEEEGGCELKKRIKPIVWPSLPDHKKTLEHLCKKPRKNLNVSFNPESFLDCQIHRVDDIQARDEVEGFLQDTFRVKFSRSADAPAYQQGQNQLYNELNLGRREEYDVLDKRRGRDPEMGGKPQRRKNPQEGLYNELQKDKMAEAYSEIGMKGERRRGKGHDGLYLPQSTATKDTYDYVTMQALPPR
notes: Expressed on human T cells; also called CAR-T #6; PG13/#6

Molecular target: T1, IL13Rα2
Assay: inferred by the filing from LDH cytotoxicity of CAR-T cells on U87 (IL13Rα2+) versus 293FT (IL13Rα2-) cells
Description: In order to measure the cytotoxicity of IL13Rα2-specific CAR-T cells prepared in Example 2 (#1, #2, #5, #6, #7, #8, #11, or #12), cytotoxicity assay was performed using an LDH (Promega) kit. Specifically, CAR-T cells (effector cells) were used 10 days after activation of the cells with an anti-CD3 Ab, and the CAR-T cells (having a CAR expression rate of 20% to 40%) were added to a 6-well plate at a ratio 1:2, in which effector:target was 1×10⁶ cells:2×10⁶ cells and reacted at 37° C. for 24 hours.
An analysis was performed to examine whether IL13Rα2-specific CAR-T cells prepared in the present invention can effectively kill the target cancer cells (U87 expressing IL13Rα2).

Binder	binding result
B1	binds
B2	binds
